From patent US20140341881A1 (DERMADIS, published 2014) come the findings set out here.

The target of experiment [1] is T1, human kallikrein 14 (hK14) (human, UniProt Q9P0G3 25-251, limits assumed).
T1 construct: range counted on GenBank AAK48524 (printed), which may differ from the UniProt numbering; also called recombinant hK14
T1 sequence (looked up): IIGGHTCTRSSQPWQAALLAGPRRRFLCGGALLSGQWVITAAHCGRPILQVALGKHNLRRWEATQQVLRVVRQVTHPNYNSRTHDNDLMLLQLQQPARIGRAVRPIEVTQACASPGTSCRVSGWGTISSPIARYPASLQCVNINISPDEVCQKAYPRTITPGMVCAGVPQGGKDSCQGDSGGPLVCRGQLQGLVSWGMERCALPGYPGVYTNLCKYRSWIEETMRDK
Put plainly: progress curve, pseudo-first order, 37 C. The procedure:
The association rate constants for interactions of hK14, with different inhibitors were determined under pseudo-first order conditions using the progress curve method (Morrison and Walsh, 1988). Under these conditions, a fixed amount of enzyme (2 nM) was mixed with different concentrations of inhibitor (0-80 nM) and an excess of substrate (20 μM). Reactions were performed in reaction buffer (50 mM Tris pH 7.5, 150 mM NaCl, 0.05% Triton X-100, 0.01% BSA) at 37° C. for 45 min and the rate of product formation was measured using a FLₓ800 fluorescence 96-well microplate reader (Biotek, USA) Inhibition is considered to be irreversible over the course of reaction and the progression of enzyme activity is expressed as product formation (P), beginning at a rate (vz) and is inhibited over time (t) at a first-order rate (kobs), where the rate constant is only dependent on the inhibitor concentration.
Kinetic analysis of the inhibition of human hK14 by recombinant serpins were performed under pseudo-first-order conditions using an excess of inhibitor at various molar ratios of hK14. The time-dependent inactivation of the enzyme through reaction with serpin was monitored continuously, following the decrease in the rate of substrate turnover. Progress curves for reactions with different serpin concentrations were fitted to equation 1 to calculate values describing the rate constant (kobs). The association rate constants (kₐ) were determined from the slope of kobs values versus the concentration of the hK14 inhibitors.

The next experiment concerns the target T2, human kallikrein 8 (hK8) (human, UniProt O60259 33-260).
T2 sequence (looked up): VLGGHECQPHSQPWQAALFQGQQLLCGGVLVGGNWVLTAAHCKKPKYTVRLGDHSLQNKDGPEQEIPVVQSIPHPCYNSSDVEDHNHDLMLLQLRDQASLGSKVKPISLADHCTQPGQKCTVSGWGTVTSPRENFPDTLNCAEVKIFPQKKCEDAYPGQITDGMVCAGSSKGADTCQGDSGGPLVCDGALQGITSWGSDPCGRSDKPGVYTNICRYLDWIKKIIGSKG
Put plainly: cell-based or functional assay.

The target in experiment [2] is T3, human kallikrein 13 (hK13) (human, UniProt Q9UKR3 26-277, limits assumed).
T3 sequence (looked up): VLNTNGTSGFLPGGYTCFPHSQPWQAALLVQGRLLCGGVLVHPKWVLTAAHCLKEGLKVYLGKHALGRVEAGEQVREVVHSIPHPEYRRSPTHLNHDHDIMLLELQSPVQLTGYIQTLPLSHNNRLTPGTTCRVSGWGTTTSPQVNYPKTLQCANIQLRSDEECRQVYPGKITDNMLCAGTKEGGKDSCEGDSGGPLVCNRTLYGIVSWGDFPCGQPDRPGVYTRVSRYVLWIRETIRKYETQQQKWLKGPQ
In words: cell-based or functional assay.

For experiment [3], the target named is T1, human kallikrein 14 (hK14). Put plainly: cell-based or functional assay.
In another experiment the target is human kallikrein 6 (hK6) (human, UniProt Q92876 22-244). In words: cell-based or functional assay.
The next experiment has as its target T4, human kallikrein 5 (hK5) (human, UniProt Q9Y337 67-293, limits assumed).
T4 sequence (looked up): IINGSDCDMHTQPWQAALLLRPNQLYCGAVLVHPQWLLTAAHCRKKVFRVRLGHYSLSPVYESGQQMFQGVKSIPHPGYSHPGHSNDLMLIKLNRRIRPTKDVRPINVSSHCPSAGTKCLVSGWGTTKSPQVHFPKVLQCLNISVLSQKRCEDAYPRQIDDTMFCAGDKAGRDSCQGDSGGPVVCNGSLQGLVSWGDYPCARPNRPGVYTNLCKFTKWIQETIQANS
Put plainly: cell-based or functional assay.

The next experiment addresses human kallikrein 2 (hK2) (human, UniProt P20151 25-261). In words: cell-based or functional assay.
Experiment [4] deals with thrombin. Put plainly: cell-based or functional assay.
In the next experiment the target is human kallikrein 4 (hK4) (human, UniProt Q9Y5K2 31-254, limits assumed). Put plainly: cell-based or functional assay.
For experiment [5], the target named is T5, human neutrophil elastase (HNE) (human, UniProt P08246 30-247, limits assumed).
T5 sequence (looked up): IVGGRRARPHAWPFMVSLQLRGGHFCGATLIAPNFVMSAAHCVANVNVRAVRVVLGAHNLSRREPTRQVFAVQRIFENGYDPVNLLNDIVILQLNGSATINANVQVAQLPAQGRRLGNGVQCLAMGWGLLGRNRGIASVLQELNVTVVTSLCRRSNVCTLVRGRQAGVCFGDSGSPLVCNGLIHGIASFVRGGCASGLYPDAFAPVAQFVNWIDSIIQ
Put plainly: cell-based or functional assay.

The target in experiment [6] is T6, human chymotrypsin (Chtr) (human, UniProt P17538 19-263). In words: cell-based or functional assay.
Experiment [7] has as its target prostate specific antigen (PSA, hK3) (human, UniProt P07288 25-261). In words: cell-based or functional assay.
Experiment [8] addresses T7, human plasma kallikrein (PK) (human, UniProt P03952 20-638). In words: cell-based or functional assay.
The target in experiment [9] is T1, human kallikrein 14 (hK14). Put plainly: residual hK14 activity after 4 h at 37 C against [I0]/[E0]. Here is the method: SI values of rAAT, rACT, and their variants were determined with hK14 incubating the protease with varying concentrations of inhibitor. After an incubation of 4 hours at 37° C. in reaction buffer (50 mM Tris, pH 7.5, 150 mM NaCl, 0.05% Triton X-100, 0.01% BSA), the residual activity was detected by the addition of fluorescent substrate (Boc-Val-Pro-Arg-AMC). Fluorescence was measured with excitation at 340 nm (±15) and emission at 485 nm (±10) in black 96 well plates using a microplate fluorescence reader FLₓ800 (Bio-Tek Instruments, Inc.). The SI value corresponds to the abscissa intercept of the linear regression analysis of fractional velocity (velocity of inhibited enzyme reaction (vi)/velocity of uninhibited enzyme reaction (v₀)) vs. the molar ratio of the inhibitor to enzyme ([I₀]/[E₀]).

Experiment [10] addresses T1, human kallikrein 14 (hK14). In words: progress curve.
The target in experiment [11] is T1, human kallikrein 14 (hK14). Put plainly: cell-based or functional assay. The source holds these as a separate data set.
The target of experiment [12] is thrombin. In words: cell-based or functional assay. The source holds these as a separate data set.
Experiment [13] concerns the target urokinase plasminogen activator (uPA) (UniProt P00749 21-431, limits assumed). Put plainly: cell-based or functional assay.
Experiment [14] addresses T5, human neutrophil elastase (HNE). In words: cell-based or functional assay. This is another data set of the same source.
In experiment [15] the target is T6, human chymotrypsin (Chtr). In words: cell-based or functional assay. This is another data set of the same source.
In experiment [16] the target is T7, human plasma kallikrein (PK). Put plainly: cell-based or functional assay. This is another data set of the same source.
In experiment [17] the target is T1, human kallikrein 14 (hK14). In words: residual hK14 activity against [I0]/[E0]. In short, it runs like this:
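hK14 preincubated 4 hours at 37° C with varying inhibitor concentrations in 50 mM Tris pH 7.5, 150 mM NaCl, 0.05% Triton X-100, 0.01% BSA; residual activity read with Boc-Val-Pro-Arg-AMC (ex 340/em 485 nm). SI taken as abscissa intercept of vi/v₀ versus [I₀]/[E₀] linear regression.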

T6 sequence (P17538 19-263): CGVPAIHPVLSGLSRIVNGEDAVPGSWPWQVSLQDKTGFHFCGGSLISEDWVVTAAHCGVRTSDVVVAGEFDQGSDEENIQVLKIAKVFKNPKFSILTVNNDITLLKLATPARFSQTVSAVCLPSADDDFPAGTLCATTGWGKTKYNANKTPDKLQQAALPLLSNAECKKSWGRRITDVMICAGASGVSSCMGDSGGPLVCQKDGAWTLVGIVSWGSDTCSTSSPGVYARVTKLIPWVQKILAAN
T7 sequence (P03952 20-638 limits assumed): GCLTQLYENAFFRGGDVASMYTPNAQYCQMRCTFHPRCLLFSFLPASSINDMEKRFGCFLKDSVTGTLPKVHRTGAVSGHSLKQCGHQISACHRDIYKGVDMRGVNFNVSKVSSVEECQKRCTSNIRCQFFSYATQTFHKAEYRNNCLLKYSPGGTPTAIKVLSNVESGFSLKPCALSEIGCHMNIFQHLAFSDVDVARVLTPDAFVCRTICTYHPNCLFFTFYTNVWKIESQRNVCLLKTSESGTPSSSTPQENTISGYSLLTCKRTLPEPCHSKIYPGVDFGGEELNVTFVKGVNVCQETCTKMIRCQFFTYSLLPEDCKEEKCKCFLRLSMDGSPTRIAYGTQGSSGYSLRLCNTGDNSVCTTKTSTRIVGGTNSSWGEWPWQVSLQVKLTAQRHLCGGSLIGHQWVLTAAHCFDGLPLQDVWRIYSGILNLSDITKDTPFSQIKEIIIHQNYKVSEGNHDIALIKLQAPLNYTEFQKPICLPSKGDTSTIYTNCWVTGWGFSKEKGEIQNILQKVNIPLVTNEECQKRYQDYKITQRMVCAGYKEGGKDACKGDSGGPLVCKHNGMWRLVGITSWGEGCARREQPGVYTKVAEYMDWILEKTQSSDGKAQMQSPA
Sequence of human kallikrein 4 (hK4) (Q9Y5K2 31-254 limits assumed): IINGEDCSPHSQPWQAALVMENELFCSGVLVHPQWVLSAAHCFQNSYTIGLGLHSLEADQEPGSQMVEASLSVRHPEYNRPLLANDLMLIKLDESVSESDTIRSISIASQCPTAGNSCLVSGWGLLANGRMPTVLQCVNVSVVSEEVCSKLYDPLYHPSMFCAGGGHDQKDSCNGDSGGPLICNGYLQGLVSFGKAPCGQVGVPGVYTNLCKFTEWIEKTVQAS

B1: ACTE8 (other)
chain: MRGSHHHHHHSRHPNSPLDEENLTQENQDRGTHVDLGLASANVDFAFSLYKQLVLKAPDKNVIFSPLSISTALAFLSLGAHNTTLTEILKGLKFNLTETSEAEIHQSFQHLLRTLNQSSDELQLSMGNAMFVKEQLSLLDRFTEDAKRLYGSEAFATDFQDSAAAKKLINDYVKNGTRGKITDLIKDLDSQTMMVLVNYIFFKAKWEMPFDPQDTHQSRFYLSKKKWVMVPMMSLHHLTIPYFRDEELSCTVVELKYTGNASALFILPDQDKMEEVEAMLLPETLKRWRDSLEFREIGELYLPKFSISRDYNLNDILLQLGIEEAFTSKADLSGITGARNLAVSQVVHKAVLDVFEEGTEASAATAVKILQRAILVETRTIVRFNRPFLMIIVPTDTQNIFFMSKVTNPKQA
notes: also called rACTE8
For B1, the kon in experiment [1] and in experiment [10] was 575000 M⁻¹ s⁻¹ throughout. In addition, the Percentage inhibition in the experiment with human kallikrein 8 (hK8) was 34%; in experiment [2], 0%; in experiment [3], 100%; with human kallikrein 6 (hK6) it was 72%; with human kallikrein 5 (hK5) it was 100%; with human kallikrein 2 (hK2) it was 100%. Further, the Percentage inhibition with thrombin [4] turned out to be 0%; with human kallikrein 4 (hK4), 100%; in experiment [5], 0%; in experiment [6], 14%; in [7], 0%; in experiment [8], 36%. Further, the “SI (stoichiometry of inhibition)” value in experiment [9] and in [17] was 1.2 each time. Besides, the % Inhibition (in general, the relative decrease from the control value, in per cent) was 100% in [11]; 0% in the experiment with thrombin [12]; 0% in [13]; 0% in experiment [14]; 14% in experiment [15]; 36% in experiment [16].
